Laboratory results reported in US20220348684A1 (YALE UNIVERSITY, published 2022).
Ends that are not written are not given here. BSA = bovine serum albumin (carrier protein)

T1: 1F peptide conjugated to BSA
T1 construct: Renalase peptide present only in renalase-1; also called 1F-BSA protein; 1F antigen; not shown: BSA carrier, chemically conjugated via the cysteine
T1 peptide: C(BSA)VLEALKNYI

T2: peptide 3A conjugated to BSA
T2 construct: Renalase-2 specific peptide; also called 3A5; not shown: BSA carrier, chemically conjugated via the cysteine
T2 peptide: PSAGVILGC(BSA)


Columns and labels:
[1] = biological target: T3, renalase-2 (recombinant protein) (human, UniProt Q5VYX0 18-293); assay: ELISA on coated renalase-2, antibody dilution series (axis: log (ng/ml) supe), anti-rabbit IgG-HRP
T3 construct: Bacterially expressed and coated on ELISA plates; also called renalase-2 isoform
T3 sequence (Q5VYX0 other isoform, or with tags, fused parts or gaps limits assumed): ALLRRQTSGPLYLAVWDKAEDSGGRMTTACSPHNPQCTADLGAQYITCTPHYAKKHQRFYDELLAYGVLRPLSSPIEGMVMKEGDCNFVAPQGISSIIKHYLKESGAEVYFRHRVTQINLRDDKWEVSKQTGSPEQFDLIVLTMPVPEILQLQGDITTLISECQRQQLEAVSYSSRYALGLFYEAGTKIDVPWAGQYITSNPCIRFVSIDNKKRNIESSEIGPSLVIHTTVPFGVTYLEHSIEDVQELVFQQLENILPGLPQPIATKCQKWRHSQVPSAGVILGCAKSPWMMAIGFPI
Experimental: Bacterially-expressed renalase-1 and 2 isoforms, were diluted to 100 ng/well in PBS and bound to a 96 well microtiter plate. The plate was blocked with a solution of 8% NFDM in PBS for one hour at 33° C. The renalase proteins were probed with a dilution series of the antibodies 1D-28-4, 1D-37-10, 1F-42-7, 1F-26-1 and 3A5-2. The starting concentration of antibody was typically 1μg/mL, with two-fold dilution steps prepared in PBS containing Tween-20 to 0.05% PBST. After one hour incubation at 33° C., the plate was rinsed three times with PBST. Antibody binding was assayed by adding HRP-conjugated anti-rabbit IgG at 50 ng/mL, 50μL per well. The plate was incubated at room temperature for 40 minutes. After incubation, the plate was washed three times with PBST and once with PBS. The HRP substrate 3, 3′, 5, 5′-tetramethylbenzidine (TMB) was added to 100 μL per well, and plate was incubated for approximately 5 minutes at room temperature. To stop the reaction, 100 μL 2 N H₂SO₄ was added to each well. The plate was read at 450 nm in a spectrophotometer.

[2] = biological target: T1, 1F peptide conjugated to BSA; assay: ELISA on coated 1F peptide-BSA conjugate, antibody dilution series, anti-rabbit IgG-HRP
Experimental: (§1) Peptide-Antigen Specificity ELISA: Bovine serum albumin (BSA)-conjugated renalase peptide antigen, diluted to 100 ng/well in PBS, was bound to a 96 well microtiter plate by overnight incubation at 4° C. The plate was blocked with a solution of 8% NFDM in PBS for one hour at 33° C. The peptide antigen was probed with a dilution series of the antibody raised against it, or with an antibody raised against a different antigen. The starting concentration of antibody was typically 5 μg/mL, with two-fold dilution steps prepared in PBS containing Tween-20 to 0.05% (PBST). After one hour incubation at 33° C., the plate was rinsed three times with PBST. Antibody binding was assayed by adding HRP-conjugated anti-rabbit IgG at 50 ng/mL, 50 μL per well. The plate was incubated at room temperature for 40 minutes. After incubation, the plate was washed three times with PBST and once with PBS. The HRP substrate 3, 3′, 5, 5′-tetramethylbenzidine (TMB) was added to 100 μL per well, and plate was incubated for approximately 5 minutes at room temperature. To stop the reaction, 100 μL 2 N […] was added to each well. The plate was read at 450 nm in a spectrophotometer.
(§2) Renalase peptides used for immunization were synthesized, then conjugated to bovine serum albumin (BSA). […] The plate was read at 450 nm in a spectrophotometer after reaction of HRP with the substrate TMB. […]

[3] = biological target: T4, renalase-1 (full-length recombinant protein) (human, UniProt Q5VYX0 18-342, limits assumed); assay: competition ELISA on coated renalase-1: unconjugated 1F 42-7 titrated against a constant amount of biotinylated 1F 26-1, NeutrAvidin-HRP [panel A]
T4 construct: Coated on ELISA plates as bacterially expressed renalase-1; Injected as purified recombinant renalase-1 in the Biacore assay; also called renalase-1 protein; RNLS
T4 sequence (Q5VYX0 18-342 limits assumed): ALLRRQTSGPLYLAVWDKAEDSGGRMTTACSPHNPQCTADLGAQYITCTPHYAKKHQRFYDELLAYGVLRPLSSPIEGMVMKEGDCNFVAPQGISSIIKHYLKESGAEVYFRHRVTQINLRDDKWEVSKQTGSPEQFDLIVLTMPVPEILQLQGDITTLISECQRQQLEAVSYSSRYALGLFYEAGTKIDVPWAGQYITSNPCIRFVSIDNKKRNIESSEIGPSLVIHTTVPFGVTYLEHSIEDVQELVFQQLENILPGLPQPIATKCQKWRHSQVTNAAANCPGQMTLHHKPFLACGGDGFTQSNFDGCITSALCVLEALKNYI
Experimental: (§3) Specificity of Epitope Binding: Bacterially-expressed renalase isoforms, diluted to 100 ng/well in PBS, were bound to a 96 well microtiter plate by overnight incubation at 4° C. The plate was blocked with a solution of 8% NFDM in PBS for one hour at 33° C. The renalase protein was probed with a dilution series of an unconjugated antibody, typically starting at 1 μg/mL, mixed with a different biotinylated antibody. […] Both antibodies were mixed together in PBST and applied as one addition of 50μL per well. After one hour incubation at 33° C., the plate was rinsed three times with PBST. Binding of the biotinylated antibody to renalase was assayed by adding HRP-conjugated Neutravidin (HRP-NA) at 0.4 ng/mL, 50 μL per well. The plate was incubated at room temperature for 40 minutes. After incubation, the plate was washed three times with PBST and once with PBS. The HRP substrate 3, 3′, 5, 5′-tetramethylbenzidine (TMB) was added to 100 μL per well, and plate was incubated for approximately 5 minutes at room temperature. To stop the reaction, 100 μL 2 N H2504 was added to each well. The plate was read at 450 nm in a spectrophotometer.
(§4) Bacterially-expressed renalase-1, diluted to 100ng/well in PBS, was bound to a 96 well microtiter plate by overnight incubation at 4° C. […]

mouse renalase [4] = biological target: T5, mouse renalase (mouse, UniProt A7RDN6 18-342, limits assumed); assay: cell-based or functional assay
T5 sequence (A7RDN6 18-342 limits assumed): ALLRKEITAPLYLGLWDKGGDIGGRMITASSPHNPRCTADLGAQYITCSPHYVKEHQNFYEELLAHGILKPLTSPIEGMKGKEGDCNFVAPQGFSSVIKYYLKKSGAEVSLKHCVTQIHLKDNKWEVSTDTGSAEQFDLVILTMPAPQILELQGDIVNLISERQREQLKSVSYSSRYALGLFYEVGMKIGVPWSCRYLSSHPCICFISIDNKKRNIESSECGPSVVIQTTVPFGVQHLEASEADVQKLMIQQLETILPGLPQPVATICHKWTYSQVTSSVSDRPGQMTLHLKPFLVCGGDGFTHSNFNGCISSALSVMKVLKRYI

human renalase [5] = biological target: T6, human renalase (human, UniProt Q5VYX0 18-342, limits assumed); assay: cell-based or functional assay
T6 sequence (Q5VYX0 18-342 limits assumed): as the sequence (Q5VYX0 18-342 limits assumed) above

human renalase [6] = biological target: T6, human renalase; assay: multipoint ELISA (A450), IgG dilution series on human renalase
mouse renalase [7] = biological target: T5, mouse renalase; assay: multipoint ELISA (A450), IgG dilution series on mouse renalase
[8] = biological target: T4, renalase-1 (full-length recombinant …); assay: competition ELISA on coated renalase-1: unconjugated 1D 28-4 titrated against a constant amount of biotinylated 1D 37-10, NeutrAvidin-HRP [panel A]
Experimental: as §3, §4

[9] = biological target: T2, peptide 3A conjugated to BSA; assay: ELISA on peptide antigen
Experimental: as §1, §2

EC50 (read off the curve) (human renalase [6]) [nM] | Binder | IC50 of % cell survival, YUMM1.7 (mouse melanoma) cells (mouse renalase [4]) [nM] | IC50 of % cell survival, BxPC3 (human pancreatic adenocarcinoma) cells (human renalase [5]) [nM] | also measured
– | monoclonal antibody 1F-26-1 (antibody, V domains shown, Rabbit monoclonal from hybridoma, raised against the 1F peptide; also called IF 26-1) VH: QSVKESEGGLFKPTDTLTLTCTVSGFSLSSYGVTWVRQAPGNGLEWIGLIGDRGTTFYASWAKSRSTITRNTNLNTVTLKMTRLTAADTATYFCARGSGYGARIWGPGTLVTVSS VL: AQVLTQTPSPVSAAVGGTVTINCQSSQSVYKNNYLAWYQQKPGQPPKLLIYETSKLASGVPPRFSGSGSGTQFTLTISSVQCDDAATYYCQGGYSGVDFMAFGGGTEVVVKG | – | – | binding result [1]: no binding (tested: 1000 ng/ml); EC50 (read off the curve) [2]: ~0.3 µg/mL
– | monoclonal antibody 1F-42-7 (antibody, V domains shown, Rabbit monoclonal from hybridoma, raised against the 1F peptide; Biotinylated in the biotin ELISA and Biacore assays; also called IF 42-7; M42) VH: QSVKESEGGLFKPTDTLTLTCTVSGFSLTTYGVTWVRQAPGNGLEWIGLIGDRGTTYYASWVNGRSTITRNTNLNTVTLKMTRLTAADTATYFCARGSGYGARIWGPGTLVTVAS VL: AQVLTQTPSPMSAALGGTVTINCQSSQTVYNNNYLSWYQQKPGQPPKLLIYETSKLSSGVPPRFSGSGSGTQFTLTISSVQCDDAATYYCQGGYSGVDFMAFGGGTEVVVKG | – | – | binding result [1]: no binding (tested: 1000 ng/ml); IC50 (read off the curve) [3]: ~1 µg/mL; EC50 (read off the curve) [2]: ~0.3 µg/mL
– | M28-K5 (humanized, affinity-matured variant of M28) (antibody, V domains shown) VH: EVQLVESGGGLVQPGGSLRLSCAASGFNLSSFAVHWVRQAPGKGLEWVALISGRGTRFYADSVKGRFTISKDTSKNTAYLQMNSLRAEDTAVYYCARHWYSGGVVRLDAWGQGTLVTVSS VL: DIQMTQSPSSLSASVGDRVTITCRASQSVYDNNNVAWYQQKPGKAPKLLIYGASTLYSGVPSRFSGSRSGTDFTLTISSLQPEDFATYYCLGEGPCSVTDCLIFGQGTKVEIKR | 3760 | 24.5 | –
– | M28-K13 (humanized, affinity-matured variant of M28) (antibody, V domains shown) VH: EVQLVESGGGLVQPGGSLRLSCAASGFNLSSFAVHWVRQAPGKGLEWVALIGVRGSLYYADSVKGRFTISKDTSKNTAYLQMNSLRAEDTAVYYCARHWYSGGVVRLDAWGQGTLVTVSS VL: DIQMTQSPSSLSASVGDRVTITCRASQSVYDNNNVAWYQQKPGKAPKLLIYGASTLYSGVPSRFSGSRSGTDFTLTISSLQPEDFATYYCLGEFSCSSADCFAFGQGTKVEIKR | 31.5 | 25.5 | –
~0.06 | M28-K14 (humanized, affinity-matured variant of M28) (antibody, V domains shown, the residue limits are my own count; also called M28-14) VH: EVQLVESGGGLVQPGGSLRLSCAASGFNLSSFAVHWVRQAPGKGLEWVALISGRGTRFYADSVKGRFTISKDTSKNTAYLQMNSLRAEDTAVYYCARYGYSGDVNRLDLWGQGTLVTVSS VL: DIQMTQSPSSLSASVGDRVTITCRASQSVYDNNNVAWYQQKPGKAPKLLIYGASTLYSGVPSRFSGSRSGTDFTLTISSLQPEDFATYYCLGEGPCSVTDCLIFGQGTKVEIKR | 1.41 | – | EC50 (read off the curve) (mouse renalase [7]): ~0.08 nM
– | M28-K2 (humanized, affinity-matured variant of M28) (antibody, V domains shown) VH: EVQLVESGGGLVQPGGSLRLSCAASGFNLSSFAVHWVRQAPGKGLEWVALIGVRGSLYYADSVKGRFTISKDTSKNTAYLQMNSLRAEDTAVYYCARHWYSGGVVRLDAWGQGTLVTVSS VL: DIQMTQSPSSLSASVGDRVTITCRASQSVYDNNNVAWYQQKPGKAPKLLIYGASTLYSGVPSRFSGSRSGTDFTLTISSLQPEDFATYYCLGEGPCSVTDCLIFGQGTKVEIKR | 1330 | 31.7 | –
~0.05 | M28-K16 (humanized, affinity-matured variant of M28) (antibody, V domains shown, the residue limits are my own count) VH: EVQLVESGGGLVQPGGSLRLSCAASGFNLSSFAVHWVRQAPGKGLEWVALISGRGTRFYADSVKGRFTISKDTSKNTAYLQMNSLRAEDTAVYYCARHWYSGGVVRLDAWGQGTLVTVSS VL: DIQMTQSPSSLSASVGDRVTITCRASQSVYDNNNVAWYQQKPGKAPKLLIYGASTLYSGVPSRFSGSRSGTDFTLTISSLQPEDFATYYCLGEFSCSSADCFAFGQGTKVEIKR | 17.5 | 1700 | EC50 (read off the curve) (mouse renalase [7]): ~0.06 nM
~0.3 | monoclonal antibody 1D-28-4 (antibody, V domains shown, also called m28-RNLS; Ren1D 28-4) VH: QSVEESGGRLVTPGTPLTLTCTVSGFSLSSFAVGWVRQAPGKGLEYIGIISSVGITRYASWAAGRFTISKTSTTVDLKITSPTTEDTATYFCARYGYSGDVNRLDLWGQGTLVTVSS VL: AQVLTQTASPVSAAVGGTVTINCQASQSVYDNNNLAWYQQKPGQPPKQLIYGASTLASGVSSRFKGSGSGTQFTLTISGVQCDDAATYYCLGEFSCSSADCFAFGGGTEVVVKG | 70 | 1.5 | IC50 (read off the curve) [8]: ~2 µg/mL
– | monoclonal antibody 3A-5-2 (antibody, V domains shown, Rabbit monoclonal from hybridoma, raised against the renalase-2 specific peptide 3A (3A5)) VH: QSLEESGGRLVTPGTPLTLTCTVSGFSLNNYHIYWVRQAPGKGLEYIGIIFNGGTYYARWTKGRFTISKTSTTVDLKMTSLTTEDTATYFCARGDGIWGPGTLVTVSL VL: AQVLTQTPASVSAAVGGTVTINCQASQSVFNNNYLAWYQQKPGQPPKRLIYSASTLASGVSSRFKGSGSGTEFTLTMSGVECDDAATYYCAGSFDCNSGDCVAFGGGTEVVVKG | – | – | binding result [9]: binds
